Experimental data published in the supplement of paper PMC9942255.

Tested on: Bacillus subtilis DB104 (SP-AmyQ fusion secretion)
Assay: AmyQ secretion efficiency, weighted average sort bin (1 = best secretion, 10 = worst) (bin number (weighted average, 1-10)); higher = lower secretion efficiency
Method in brief: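 B. subtilis DB104 library expressing mature AmyQ fused to designed signal peptides (amyE-integrated) was encapsulated at about 0.3 cells per ~65 nL alginate bead with fluorescein-starch, grown about 13 h at room temperature and nile red stained. Occupied beads were sorted by large-particle flow cytometry into 10 equally populated bins by green/red fluorescence ratio, and each bin's amplicons were Illumina-sequenced. Secretion score is the read-frequency-weighted average bin number, normalised to beads per bin, excluding low-abundance sequences.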

| Sequence | AmyQ secretion efficiency |
| --- | --- |
| MKLSVKIAGVLTVAAAAMTAKMYATMKGN | 6.84 |
| MKKQIITATTAVVLGSTLFAGANSAQSI | 3.08 |
| MFKKLLLATSALTFSLSLVLPLDGHAKAQED | 2.98 |
| MKKRLIAPMLLSAASLAFFAMSGSVQAAAY | 4.49 |
| MFLRKILLSSALSLGMLVSAAPVLATSS | 2.2 |
| MKKAFILSAAAAVGLFTFGGVQQMSAKEL | 2.71 |
| MKKRITYSLLALLAVVAFAFTDSSAAKAAEA | 2.68 |
| MRNLTKTSLLLAGLCTAAQMVFVTHLSAEES | 3.52 |
| MKKKQQRLALTAAAGLGLTALHSAPAAKAAPL | 5.39 |
| MKKTIMSFVAVAALSTTAFGAHISAKEI | 4.65 |
| MNKKYFVLIVCIIFTSALFPTFAVTVTAAQG | 1.05 |
| MKKRLIGFLVLVPALIMSGITLMEANKK | 7.17 |
| MKLSVKIAGVLTVAAAAMEDDMYATAKGN | 6.49 |
| MRSKKLLFTLWISLLFALTLIFTMAFSNMSAQAAGK | 2.87 |
| MKNMSCKLVVSVTLFFSFLGGGPLAHAQNS | 1.53 |
| MGMLFKIIGWILLLCIIPLFAFTVIASGKEV | 2.66 |
| MKLSVKIAGVLTVAAAAMTAKMYRTAKGN | 7.39 |
| MNKLKRLSMLTVMIASVFIFSSHALAADD | 4.21 |
| MLCVMMLLFSAIATFVVVAQAKDQ | 6.49 |
| MKKVMLATALFLGLTPANAADL | 8.14 |
| MMGVLLSALLLLLFAFEPSASGKKL | 6.16 |
| MTKKAWFLPLVCVLLISGWLAPAASASMQTT | 2.07 |
| MKKWLIIAVSLAIAIVLFMYTKGETKAAGM | 3.24 |
| MLKKIALTLCPAIVGSLLFFTAPAPVAVASFAAAASAHVS | 5.09 |
| MKVLLSALLLLLFAFEPSASAKKL | 1.92 |
| MGLGKKLSVAVAASFMSLSISLPGEQAAEG | 3.68 |

| Sequence | AmyQ secretion efficiency |
| --- | --- |
| MGLGKKLKKRKRRSFMSLSISLPGVQAAEG | 7.65 |
| MKRFLIGAGVAAVILFSITFSGWFIADHQTHSQEM | 5.28 |
| MNLRKILLSSALSLGMLVSAAPVLNTSS | 5.87 |
| MRRYRKVLTMCFLGLILFVPTALADNS | 1.79 |
| MRPVFPLILSAVLFLSCFFGARQTELSASKR | 3.47 |
| MKLSVKIAGVLTVAAAAMTAKMYWTAKGN | 7.62 |
| MTKKAWFLPLVCVLLIEEEEEEAASASAQTT | 6.12 |
| MRSYIKVKKMCFLGLILFVPTALADNS | 3.9 |
| MSNMSCMLVVSVTLFFSFLTIGPLAHAQNS | 1.7 |
| MGTTIVAGLAVSAVVGSSMAAAPAEAKTI | 6.13 |
| MKKKQVSHAIIISVMLSFVIAVFHTIHASERKR | 7.08 |
| MKKKRKKFVAVAALSTTAFGAHASAKEI | 6.1 |
| MKRKLLSSLAISALSLGLLVSAPTASFADDE | 5.75 |
| MFNRLFRVCFLAALIMAFTLPNSVYQQKP | 5.8 |
| MKWMCSICCAAVLLAGGAAQGEAV | 3.2 |
| MKLWMRKTLVVLFTIVTFGLVSPPAAEMADKP | 2.41 |
| MFNRLFRVCFLAALIMAFTLPNSVYIQKP | 7.01 |
| MKKQIKKKRKKVVLGSTLFAGAASAQSI | 7.55 |
| MRPVFPLILSAVLFLSCFFGARQTEASARKR | 2.01 |
| MRKKRTIFAFLTGLMMFGTITAASASPD | 4.56 |
| MKKQIITATTAVVLGSTLFAGAYSAQSI | 5.58 |
| MKKRFSLIMMTGLLFGLTSPAFARKK | 7.01 |
| MNLRKNSFFILLSSALSLGMLVSAAPVLATSS | 1.98 |
| MKKQIITATTAVVLGSTLFAGAPPATASVPVVGASAQSI | 2.17 |
| MKRLLVSLRVWMPDRKTAAAAVY | 6.76 |
| MLKKKWMVGLLAGCLAAGGFSYNAFRTEN | 5.68 |

| Sequence | AmyQ secretion efficiency |
| --- | --- |
| MKLWMRKTLVVLFTIVTFGLVSPPAAHMADKP | 2.08 |
| MKLKSKLLLSCLALSTVFVATTIANLPTH | 6.34 |
| MRPQFPLILSAVLFLSCFFGARQTEASASKR | 4.77 |
| MRPVFPLILSAVLFLSCFFGARQTEKSASKR | 6.8 |
| MSGSSVMMLALTAAAGLGLTALHSAPAAKAAPL | 2.7 |
| MKKSQYFIVFICFFVLFSVHPIAGAAADS | 3.96 |
| MKKIWIGMLAAAVLLLMVPKVSLAEDD | 4.09 |
| MKVPKTMLLSTAAGLLLSLTATSVSWHYV | 4.99 |
| MMLSVKIAGVLTVAAAAMTAKMYATAKGN | 5.4 |
| MFKFKKNFLFLVGLSAALMSISLFSATASAAST | 1.42 |
| MKKKLAAGLTASAVTPAEAATI | 6.26 |
| MKLAKRVSALTPSTTLAITCKAKEL | 7.57 |
| MRKYTVIASILLSFLSVLDEDDEDHHESKAFPV | 5.95 |
| MKSCKQLIVCSLAAILLLIPSVAFAADS | 2.83 |
| MTVPKTMLLSTAAGLLLSLTATSVSAHYV | 6.58 |
| MRMLWRSLALCGLALTLAPCFVVTPASAQAAEP | 2.23 |
| MKKTIMSFVAVAALSTTAFGAHASSKEI | 3.17 |
| MKKRLIAPMLLSAASLAFFAMSGSAQWAAY | 6.21 |
| MKKRKRRNFKRFIAAFLVLALMILSLVPADVLAKST | 2.47 |
| MKKWMITIAMLILAGIALFVFISPPKSHKT | 5.84 |
| MKLSVKIAGVLTVAAAAMTAKMYKTAKGN | 7.2 |
| MRGKSAVLLSLIMLIAGFLISFYFQM | 7.22 |
| MKKIWIGMLAAAVLLLMVPKVMLADAA | 4.26 |
| MKKGIIRFLLVSFVLFFALSTGITGKQAAPA | 5.05 |
| MKKVRRATALFLGLTPAGANAADL | 7.17 |
| MKKQIITATTAVVLGSTLFAGAASAQSD | 2.54 |

| Sequence | AmyQ secretion efficiency |
| --- | --- |
| MTKRYGQTKTYKGTTTTAVLAAVFYLTDEDQAAAV | 6.8 |
| MKNMSCKLVVSVTLFFSFLTIGPLAHAQNR | 1.47 |
| MAIIIAIIAAVIVIAALITFNVRNVSPG | 8.03 |
| MKVCQKSIVRFLVSLIIGTFVIRKKFMANAQSD | 6.59 |
| MKKRLIAPMLLSAASLAFFAMSGSMQAAAY | 5.75 |
| MHLIRAAGAVCLAVVLIAGCRFNEDQHQAEGRRR | 5.26 |
| MNKPTKLFSTLALAAAAAAGGAGTIHAQQP | 1.43 |
| MKKKLAAGLTASAIVGTTLVVTPAEDATI | 6.33 |
| MKRSISRKITCLLITLLTMGGMIASPASAAGT | 2.01 |
| MKNMSCKLVVSVTLFFSFLKRRPLAHAQNS | 8.2 |
| MRPVFPLRRRRRRFLSCFFGARQTEASASKR | 7.47 |
| MKRSISIFITCLLITLLTMGGMIASPASIAGT | 4.57 |
| MRFTKKKTFLSVLGLAAVFPLTAQAEKA | 3.64 |
| MTKLKMLSMLTVMIASLFIFSSQALSVQY | 2.56 |
| MFMMLGSLLITAGILVFFAVVVKDVFAAGL | 6.51 |
| MILTKVLTGSVLSLGLLVSASPAFATSP | 1.75 |
| MRNLTKTSLLLAGLCTAAQMVFVTHASSEES | 4.13 |
| MLMKVILAAFILVGSTLGAFSFSSDASAKHV | 2 |
| MRKKLKWLSFLLGFIILLFLFTLTILKYQFSNNDS | 7.28 |
| MKRTWNTCLTALLSVLLVAGSVPFHAEAKKP | 2.37 |
| MIAYFGKCLLLVTIMFLGVLFGMWQANHG | 7.19 |
| MKLWMRKTLRRLFTIVTFGLVSPPAALMADKP | 7.18 |
| MKKRLIAPMLLSAASLAFFARRKRKKAQAAAY | 7.44 |
| MYSAIIIAIIAAVIVIAALITFNVRNASPG | 7.59 |
| MKKKLAAGLTASAIVGTTLVVTPWEAATI | 6.58 |
| MRNLTKTSLLLAGLCTAAQMVFVTHTFTFVGASAEES | 7.25 |

| Sequence | AmyQ secretion efficiency |
| --- | --- |
| MSLWMSKTLVVLFTIVTFGLVSPPAALMADKP | 2.43 |
| MGGVFPLILSAVLFLSCFFGARQTEASASKR | 4.03 |
| MKKRLIAPMLLSAASLAFFAMSGSNQAAAY | 3.88 |
| MKWMCSICCAAVLGAAQAEAV | 4.75 |
| MKKLVLCVSILAVILSGVALTDED | 6.4 |
| MKNMSCKLVVSVTLFFSFLTIGPLTHAQNS | 1.52 |
| MKKQIITATTAVVLGSTLFAGALSAQSI | 2.54 |
| MFNRLFRVCFLAALIMAFTLPNSTYAQKP | 2.43 |
| MKKLLAAGIIGLLTVSIASPMFAAEK | 3.35 |
| MKRLALGAALTIAPLSFASAEEN | 5.98 |
| MNFKKTVVSALSISALALSVSGVASGHEI | 4.67 |
| MLCVMMLLFSAIASFPVSAQHKDQ | 5.96 |
| MFKFKKNFLVGLSAALMSIKQFSATASAAST | 5.73 |
| MFNRLFRVCFLAALIMAFTLPNSVYPQKP | 7.22 |
| MKKAFLVFLSVVLVTTVFLTSSFLVKQQESVAQAKQL | 4.08 |
| MTMLRKIRKWILLLCIIPLFAFTVIASGKEV | 6.76 |
| MKKRLIGFLVLVPALIMSGITLKEANKK | 6.33 |
| MKKGIIRFLLVSFVLFFALSTGSTGVQAAPA | 1.88 |
| MKLAKRVSALTPSTTLAITAKHKEL | 6.77 |
| MKKRLIAPMLLSAASLAFFAMSGSDQAAAY | 4.18 |
| MKWMCSICCAAVLLAGGTAQAEAV | 2.47 |
| MKKWMAGLFLAAAVLLCLMVPQQVQGASS | 3.15 |
| MFKKHTISLLIIFLLAATFFSFTSLISAVLAKPIEAHTV | 4.38 |
